Assay results from publication PMC9938351, “Structural insights into ribonucleoprotein dissociation by nucleocapsid protein interacting with non-structural protein 3 in SARS-CoV-2” (Communications Biology, 2020).

Tests used:
[1] = target: MERS-CoV N protein (MERS-CoV, UniProt K9N4V7 1-411); experiment: ITC; conditions: both partners purified
[2] = target: SARS-CoV N protein (SARS-CoV, UniProt P59595 1-422); experiment: ITC; conditions: both partners purified
Chain of SARS-CoV N protein (P59595 whole entry): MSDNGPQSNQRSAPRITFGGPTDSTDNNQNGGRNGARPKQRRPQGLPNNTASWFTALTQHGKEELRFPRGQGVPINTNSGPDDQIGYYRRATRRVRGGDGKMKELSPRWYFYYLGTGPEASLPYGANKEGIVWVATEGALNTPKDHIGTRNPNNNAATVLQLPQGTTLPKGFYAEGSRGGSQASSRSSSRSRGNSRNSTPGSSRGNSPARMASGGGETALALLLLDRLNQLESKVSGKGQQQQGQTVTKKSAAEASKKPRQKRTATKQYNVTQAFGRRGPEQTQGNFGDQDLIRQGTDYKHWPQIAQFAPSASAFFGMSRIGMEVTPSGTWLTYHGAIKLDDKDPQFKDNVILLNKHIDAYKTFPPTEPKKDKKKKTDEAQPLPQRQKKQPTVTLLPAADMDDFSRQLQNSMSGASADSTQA

B1: MERS-CoV Ubl1 of Nsp3 (domain or fragment)
chain: APVKKVAFGGDQVHEVAAVRSVTVEYNIHAVLDTLLASSSLRTFVVDKSLSIEEFADVVKEQVSDLLVKLLRGMPIPDFDLDDFIDAPCYCFNAEGDASWSSTMIFSLHPVEC
[1]
  Kd: 2300 ± 600 nM
  dH: 6.09 ± 0.311 kcal/mol
  stoichiometry N: 0.82 ± 0.02

B2: SARS-CoV Ubl1 of Nsp3 (domain or fragment)
chain: APIKGVTFGEDTVWEVQGYKNVRITFELDERVDKVLNEKCSVYTVESGTEVTEFACVVAEAVVKTLQPVSDLLTNMGIDLDEWSVATFYLFDDAGEENFSSRMYCSFYPPD
[2]
  Kd: 800 ± 200 nM
  dH: -13.4 ± 0.382 kcal/mol
  stoichiometry N: 1 ± 0.02
